# In IntAct's records for PubMed 31663849:
# B1: Secretagogin (Homo sapiens), O76038 (parent)
# chain: MDSSREPTLGRLDAAGFWQVWQRFDADEKGYIEEKELDAFFLHMLMKLGTDDTVMKANLHKVKQQFMTTQDASKDGRIRMKELAGMFLSEDENFLLLFRRENPLDSSVEFMQIWRKYDADSSGFISAAELRNFLRDLFLHHKKAISEAKLEEYTGTMMKIFDRNKDGRLDLNDLARILALQENFLLQFKMDACSTEERKRDFEKIFAYYDVSKTGALEGPEVDGFVKDMMELVQPSISGVDLDKFREILLRHCDVNKDGKIQKSELALCLGLKINP
# Variants of: B1
# Details: with snp25_mouse Snap25, P60879
# Sequence of snp25_mouse Snap25, P60879 (P60879 whole entry, looked up): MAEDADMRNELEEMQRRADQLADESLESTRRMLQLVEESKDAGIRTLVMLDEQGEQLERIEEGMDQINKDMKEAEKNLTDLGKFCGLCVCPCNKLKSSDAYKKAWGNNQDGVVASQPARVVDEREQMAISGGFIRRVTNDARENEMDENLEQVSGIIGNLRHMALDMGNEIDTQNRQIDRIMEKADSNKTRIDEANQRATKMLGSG
row,effect of a mutation on the interaction,Variant
1,with no effect,MDSSREPTLGRLDAAGFWQVWQRFDADEKGYIEEKELDAFFLHMLMKLGTDDTVMKANLHKVKQQFMTTQDASKDGHIRMKELAGMFLSEDENFLLLFRRENPLDSSVEFMQIWRKYDADSSGFISAAELRNFLRDLFLHHKKAISEAKLEEYTGTMMKIFDRNKDGRLDLNDLARILALQENFLLQFKMDACSTEERKRDFEKIFAYYDVSKTGALEGPEVDGFVKDMMELVQPSISGVDLDKFREILLRHCDVNKDGKIQKSELALCLGLKINP [R77H]
